Data on 13 molecules can be found in paper PMC3293417 (Nature Communications, 2012).

Where a chain is given by its changes, count along the chain named. In names and notes the source's numbering stands.

To fix the notation:
B1: Beclin 1 coiled coil (CC) domain (residues 174–266), wild type, untagged (domain or fragment)
chain: DSEQLQRELKELALEEERLIQELEDVEKNRKVVAENLEKVQAEAERLDQEEAQYQREYSEFKRQQLELDDELKSVENQMRYAQMQLDKLKKTN
B2: Beclin 1 CC domain MutStab E189L/A217L/E224L/A255L (domain or fragment)
chain: B1 chain with E16L, A44L, E51L, A82L
B3: CC region of mouse UVRAG (residues 228–298) (domain or fragment)
chain: TSNELKKESECLRLKILVLRNELERQKKALGREVAFLHKQQMALQDKGSAFSTEHGKLQLQKDSLSELRKE
B4: CC region of rat Atg14L (residues 88–178) (domain or fragment)
chain: KQEEFQKEVLKAMEGKRLTDQLRWKIMSCKMRIEQLKQTICKGNEEMKKNSEGLLKNKEKNQKLYSRAQRHQEKKEKIQRHNRKLGDLVEK

Series [1] has as its target CC region of mouse UVRAG (residues 228–298) (mouse) (UniProt Q8K245). In words: ITC. Background: In ITC the heat of successive injections is recorded.
Series [2] has as its target B4. In words: ITC.
For series [3], the target named is B3. In words: ITC.
The series “ITC” concerns the molecule itself. The series can be described thus: ITC.
The series “AUC” concerns the molecule itself. In words: AUC.
The target of series [4] is B1. The series can be described thus: ITC.
For series [5], the target named is Beclin 1 CC domain MutM L178A/L192A (rat, UniProt Q91XJ1 174-266, L178A | L192A). In words: ITC.
For series [6], the target named is Beclin 1 CC domain MutM L178A/L196A (rat, UniProt Q91XJ1 174-266, L178A | L196A). In words: ITC.
In series [7] the target is Beclin 1 CC domain MutM L178A/L259A (rat, UniProt Q91XJ1 174-266, L178A | L259A). The series can be described thus: ITC.
Sequence of Beclin 1 CC domain MutM L178A/L259A (Q91XJ1 174-266 L178A/L259A): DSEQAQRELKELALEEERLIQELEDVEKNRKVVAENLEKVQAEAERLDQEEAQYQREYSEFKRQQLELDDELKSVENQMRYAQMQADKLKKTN
The target in series [8] is Beclin 1 CC domain MutStab E224L (rat, UniProt Q91XJ1 174-266, E224L). In words: ITC.

Take “Beclin 1 CC domain MutM L178A/L192A (from UniProt Q91XJ1 174-266) (domain or fragment)”: in series [1], the Kd (as a rule, a measure of binding affinity in units of concentration) turned out to be 2.24 µM. That is a single-digit micromolar value. Still for that read-out and setting: to “Beclin 1 CC domain MutM L178A/L196A (from UniProt Q91XJ1 174-266) (domain or fragment)” belongs 1.14 µM; to “Beclin 1 CC domain MutM L178A/L259A (from UniProt Q91XJ1 174-266) (domain or fragment)”, 0.07 µM. Take “Beclin 1 CC domain MutStab A217L/E224L (from UniProt Q91XJ1 174-266) (domain or fragment)”: in series [1], the Kd turned out to be 1.44 µM and the stoichiometry N (in general, a count of units in the complex or per binding partner) came to 1. Consider “Beclin 1 CC domain MutStab A217L/E224L/A255L (from UniProt Q91XJ1 174-266) (domain or fragment)”, for which the Kd in [1] is 4.24 µM. Still for that read-out and setting: to “Beclin 1 CC domain MutStab E189L (from UniProt Q91XJ1 174-266) (domain or fragment)” belongs 1.13 µM. Same read-out and setting: to “Beclin 1 CC domain MutStab E189L/A217L/E224L/A255L (from UniProt Q91XJ1 174-266) (domain or fragment)” belongs 8.7 µM. In [1], “Beclin 1 CC domain MutStab E189L/A255L (from UniProt Q91XJ1 174-266) (domain or fragment)” showed a Kd of 1.31 µM and a stoichiometry N of 1. In [1], “Beclin 1 CC domain MutStab E224L (from UniProt Q91XJ1 174-266) (domain or fragment)” yielded a Kd of 2.43 µM. For B1, the “stoichiometry N” value in [2] and in series [3] was 1 throughout. The Kd in the series “ITC” was ~89 µM.

In the case of B2, the “stoichiometry N” value in the series “AUC” is 4. The molecule B3 showed a Kd in series [4] of 0.24 ± 0.06 µM.

Regarding B4, the Kd in series [4] stood at 3.22 ± 0.95 µM; in [5] it was 4.61 ± 0.5 µM; in series [6], 6.85 ± 0.84 µM; in series [7] it was 1.2 ± 0.13 µM; in series [8], 8.85 ± 0.4 µM.
